Laboratory results reported in paper PMC12855868, “Deep Mutational Scanning of FDX1 Identifies Key Structural Determinants of Lipoylation and Cuproptosis” (Nature Communications, 2025).

T1: FDXR (a.a 33-491), tagless (human, UniProt P22570 33-491, labelled with the RED-NHS 2nd generation protein labeling kit)
T1 construct: ferredoxin reductase (FDXR), human, residues 33-491, lacking the mitochondrial transit peptide; pDWSUMO; Cleavage of the SUMO tag by ULP1 leaves a Gly-His appendage at the N-terminus; also called ferredoxin reductase; mitochondrial NADPH-dependent ferredoxin reductase; source: E. coli BL21 (DE3), purified; not shown: His6-SUMO, N-terminal, cleaved
T1 sequence (looked up): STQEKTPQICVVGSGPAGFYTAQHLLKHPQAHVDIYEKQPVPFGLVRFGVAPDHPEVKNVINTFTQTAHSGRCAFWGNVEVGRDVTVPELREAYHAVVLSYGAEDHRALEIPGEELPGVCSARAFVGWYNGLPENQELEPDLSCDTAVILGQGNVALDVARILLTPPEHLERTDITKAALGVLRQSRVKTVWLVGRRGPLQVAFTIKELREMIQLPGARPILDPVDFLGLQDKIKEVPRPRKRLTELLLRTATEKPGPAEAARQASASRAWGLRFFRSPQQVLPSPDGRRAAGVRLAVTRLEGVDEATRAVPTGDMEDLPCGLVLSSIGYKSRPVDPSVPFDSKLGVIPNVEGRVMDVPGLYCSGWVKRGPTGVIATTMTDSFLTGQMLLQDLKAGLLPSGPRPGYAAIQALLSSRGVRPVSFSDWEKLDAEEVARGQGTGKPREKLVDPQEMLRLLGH

T2: LIAS (aa 28-372), tagless (UniProt O43766 28-372)
T2 construct: lipoic acid synthase (LIAS), residues 28-372, lacking the mitochondrial transit peptide; pDWSUMO; Cleavage of the SUMO tag by ULP1 leaves a Gly-His appendage at the N-terminus; Carries reconstituted Fe-S clusters; also called lipoic acid synthase; source: E. coli BL21 (DE3) carrying pDB1282, purified, iron-sulfur clusters reconstituted; not shown: His6-SUMO, N-terminal, cleaved
T2 sequence (looked up): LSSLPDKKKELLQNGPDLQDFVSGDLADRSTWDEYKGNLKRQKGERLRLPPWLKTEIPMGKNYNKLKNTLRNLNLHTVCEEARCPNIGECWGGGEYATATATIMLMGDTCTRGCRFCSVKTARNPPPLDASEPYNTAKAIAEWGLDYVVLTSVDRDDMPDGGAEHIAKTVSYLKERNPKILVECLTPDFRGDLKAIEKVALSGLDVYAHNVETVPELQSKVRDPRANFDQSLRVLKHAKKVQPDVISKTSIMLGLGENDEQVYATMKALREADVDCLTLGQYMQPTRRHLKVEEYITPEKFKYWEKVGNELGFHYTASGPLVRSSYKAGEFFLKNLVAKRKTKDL

T3: FDX1 WT (aa 61-184), N-terminal hexa-histidine tag (human), P10109
T3 chain: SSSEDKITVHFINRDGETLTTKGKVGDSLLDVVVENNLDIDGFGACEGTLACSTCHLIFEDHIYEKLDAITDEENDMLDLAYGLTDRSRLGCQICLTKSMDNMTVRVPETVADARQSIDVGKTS


Legend:
[1] = target: T1, FDXR (a.a 33-491), tagless; assay: Temperature-Related Intensity Change (TRIC) fluorescence; 50 nM RED-NHS-labelled tagless FDXR as target, His-tagged FDX1 WT or variant serially diluted (11 points from 54-68 µM); anaerobic; 25 mM MOPS pH 7.5, 125 mM KCl, 125 mM NaCl, 5% glycerol, 0.05% Tween; 30 min at room temperature, read at 22 °C; Dianthus NT.23; conditions: both partners purified
[2] = target: T2, LIAS (aa 28-372), tagless; assay: Temperature-Related Intensity Change (TRIC) fluorescence; 100 nM Red-Tris-NTA-labelled His-tagged FDX1 WT or variant as target, tagless LIAS serially diluted (10 points from 63 µM); anaerobic; 25 mM MOPS pH 7.5, 125 mM KCl, 125 mM NaCl, 5% glycerol, 0.05% Tween; 30 min at room temperature, read at 22 °C; Dianthus NT.23; conditions: both partners purified
[3] = target: T3, FDX1 WT (aa 61-184), N-terminal …; assay: as above; conditions: remark: other sources report otherwise

Row | Kd [1] [nM] | Kd [2] [nM] | Kd [3] [nM] | Binder
1 | 1500 ± 200 | – | – | FDX1 WT (aa 61-184), N-terminal hexa-histidine tag (domain or fragment, human, UniProt P10109 61-184, looked up, ferredoxin 1 (FDX1), human, residues 61-184, lacking the mitochondrial transit peptide; pET28a; Carries a reconstituted Fe-S cluster; In the FDX1-LIAS TRIC assay it was labelled on the His tag with the Red-Tris-NTA 2nd generation dye; in the FDXR assay it was the unlabelled ligand; also called ferredoxin 1; source: E. coli BL21 (DE3) carrying pDB1282, purified, iron-sulfur cluster reconstituted; …) SSSEDKITVHFINRDGETLTTKGKVGDSLLDVVVENNLDIDGFGACEGTLACSTCHLIFEDHIYEKLDAITDEENDMLDLAYGLTDRSRLGCQICLTKSMDNMTVRVPETVADARQSIDVGKTS
2 | 2200 ± 300 | 4500 ± 800 | – | FDX1 D136R (aa 61-184), N-terminal hexa-histidine tag (domain or fragment, human, UniProt P10109 61-184, looked up, ferredoxin 1 (FDX1), human, residues 61-184, lacking the mitochondrial transit peptide; pET28a; Carries a reconstituted Fe-S cluster; Labelled with Red-Tris-NTA dye in the LIAS assay only; source: E. coli BL21 (DE3) carrying pDB1282, purified, iron-sulfur cluster reconstituted; not shown: His6, N-terminal, kept) SSSEDKITVHFINRDGETLTTKGKVGDSLLDVVVENNLDIDGFGACEGTLACSTCHLIFEDHIYEKLDAITDEENRMLDLAYGLTDRSRLGCQICLTKSMDNMTVRVPETVADARQSIDVGKTS
3 | 1800 ± 300 | 3200 ± 300 | – | FDX1 D136A (aa 61-184), N-terminal hexa-histidine tag (domain or fragment, human, UniProt P10109 61-184, looked up, ferredoxin 1 (FDX1), human, residues 61-184, lacking the mitochondrial transit peptide; pET28a; Carries a reconstituted Fe-S cluster; Labelled with Red-Tris-NTA dye in the LIAS assay only; source: E. coli BL21 (DE3) carrying pDB1282, purified, iron-sulfur cluster reconstituted; not shown: His6, N-terminal, kept) SSSEDKITVHFINRDGETLTTKGKVGDSLLDVVVENNLDIDGFGACEGTLACSTCHLIFEDHIYEKLDAITDEENAMLDLAYGLTDRSRLGCQICLTKSMDNMTVRVPETVADARQSIDVGKTS
4 | 2100 ± 200 | 2500 ± 600 | – | FDX1 D139R (aa 61-184), N-terminal hexa-histidine tag (domain or fragment, human, UniProt P10109 61-184, looked up, ferredoxin 1 (FDX1), human, residues 61-184, lacking the mitochondrial transit peptide; pET28a; Carries a reconstituted Fe-S cluster; Labelled with Red-Tris-NTA dye in the LIAS assay only; source: E. coli BL21 (DE3) carrying pDB1282, purified, iron-sulfur cluster reconstituted; not shown: His6, N-terminal, kept) SSSEDKITVHFINRDGETLTTKGKVGDSLLDVVVENNLDIDGFGACEGTLACSTCHLIFEDHIYEKLDAITDEENDMLRLAYGLTDRSRLGCQICLTKSMDNMTVRVPETVADARQSIDVGKTS
5 | 1500 ± 300 | 4900 ± 600 | – | FDX1 D139A (aa 61-184), N-terminal hexa-histidine tag (domain or fragment, human, UniProt P10109 61-184, looked up, ferredoxin 1 (FDX1), human, residues 61-184, lacking the mitochondrial transit peptide; pET28a; Carries a reconstituted Fe-S cluster; Labelled with Red-Tris-NTA dye in the LIAS assay only; source: E. coli BL21 (DE3) carrying pDB1282, purified, iron-sulfur cluster reconstituted; not shown: His6, N-terminal, kept) SSSEDKITVHFINRDGETLTTKGKVGDSLLDVVVENNLDIDGFGACEGTLACSTCHLIFEDHIYEKLDAITDEENDMLALAYGLTDRSRLGCQICLTKSMDNMTVRVPETVADARQSIDVGKTS
6 | – | – | 3200 | LIAS (aa 28-372), tagless, O43766 28-372 (enzyme) LSSLPDKKKELLQNGPDLQDFVSGDLADRSTWDEYKGNLKRQKGERLRLPPWLKTEIPMGKNYNKLKNTLRNLNLHTVCEEARCPNIGECWGGGEYATATATIMLMGDTCTRGCRFCSVKTARNPPPLDASEPYNTAKAIAEWGLDYVVLTSVDRDDMPDGGAEHIAKTVSYLKERNPKILVECLTPDFRGDLKAIEKVALSGLDVYAHNVETVPELQSKVRDPRANFDQSLRVLKHAKKVQPDVISKTSIMLGLGENDEQVYATMKALREADVDCLTLGQYMQPTRRHLKVEEYITPEKFKYWEKVGNELGFHYTASGPLVRSSYKAGEFFLKNLVAKRKTKDL
